Measured values as given in article PMC8211829 (Biochimica et biophysica acta. Biomembranes, 2021).
Residue numbers refer to the chain shown, from its start. Numbers in names are those of the source.

B1: apoE(201–299) single Cys variant S223C (domain or fragment)
chain: QPLQERAQAWGERLRARMEEMGCRTRDRLDEVKEQVAEVRAKLEEQAQQIRLQAEAFQARLKSWFEPLVEDMQRQWAGLVEKVQAAVGTSAAPVPSDNH
B2: apoE(201–299) single Cys variant at E255 (domain or fragment)
chain: B1 chain with C23S, E55C

Target: the molecule itself
Test: cross-linking

Row | Protein | binding result
1 | B1 | binds
2 | B2 | binds
